The results in this text go back to PMC4825002, “Fibromodulin Interacts with Collagen Cross-linking Sites and Activates Lysyl Oxidase*” (The Journal of Biological Chemistry, 2016).

Experiment [1] deals with T1, recombinant lysyl oxidase protein (Origene) (UniProt P28300 22-417).
T1 construct: lysyl oxidase; the functional rows use this molecule for it; source: bought: Origene
T1 sequence (looked up): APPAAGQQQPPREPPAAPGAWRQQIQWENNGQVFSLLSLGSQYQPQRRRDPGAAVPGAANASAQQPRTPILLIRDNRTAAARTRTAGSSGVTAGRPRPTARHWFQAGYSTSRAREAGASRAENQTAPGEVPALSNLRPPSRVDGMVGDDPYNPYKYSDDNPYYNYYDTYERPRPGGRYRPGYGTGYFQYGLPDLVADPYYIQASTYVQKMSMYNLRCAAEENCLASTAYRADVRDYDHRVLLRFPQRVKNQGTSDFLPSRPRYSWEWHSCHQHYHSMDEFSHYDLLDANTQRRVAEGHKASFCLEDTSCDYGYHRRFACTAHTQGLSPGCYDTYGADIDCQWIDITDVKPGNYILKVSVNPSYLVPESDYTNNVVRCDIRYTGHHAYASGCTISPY
Nature of the experiment: ELISA; solid-phase assay: FMOD variants coated; serial dilutions of LOX; detected with anti-LOX antibody; apparent KD. Particulars: both partners purified. (An ELISA detects its analyte on a solid surface through an enzyme-linked reagent.)

Experiment [2] deals with T2, acetic acid-extracted tail tendon mouse collagen I (mouse, UniProt P11087 152-1207; Q01149 86-1125).
T2 construct: collagen I alpha1 chain, mouse, tissue-extracted; collagen I alpha2 chain, mouse, tissue-extracted; also called collagen type I; full-length collagen; source: extracted from mouse tail tendons using 20 mM acetic acid
T2 sequence (P11087 152-1207, chain 1 of 2): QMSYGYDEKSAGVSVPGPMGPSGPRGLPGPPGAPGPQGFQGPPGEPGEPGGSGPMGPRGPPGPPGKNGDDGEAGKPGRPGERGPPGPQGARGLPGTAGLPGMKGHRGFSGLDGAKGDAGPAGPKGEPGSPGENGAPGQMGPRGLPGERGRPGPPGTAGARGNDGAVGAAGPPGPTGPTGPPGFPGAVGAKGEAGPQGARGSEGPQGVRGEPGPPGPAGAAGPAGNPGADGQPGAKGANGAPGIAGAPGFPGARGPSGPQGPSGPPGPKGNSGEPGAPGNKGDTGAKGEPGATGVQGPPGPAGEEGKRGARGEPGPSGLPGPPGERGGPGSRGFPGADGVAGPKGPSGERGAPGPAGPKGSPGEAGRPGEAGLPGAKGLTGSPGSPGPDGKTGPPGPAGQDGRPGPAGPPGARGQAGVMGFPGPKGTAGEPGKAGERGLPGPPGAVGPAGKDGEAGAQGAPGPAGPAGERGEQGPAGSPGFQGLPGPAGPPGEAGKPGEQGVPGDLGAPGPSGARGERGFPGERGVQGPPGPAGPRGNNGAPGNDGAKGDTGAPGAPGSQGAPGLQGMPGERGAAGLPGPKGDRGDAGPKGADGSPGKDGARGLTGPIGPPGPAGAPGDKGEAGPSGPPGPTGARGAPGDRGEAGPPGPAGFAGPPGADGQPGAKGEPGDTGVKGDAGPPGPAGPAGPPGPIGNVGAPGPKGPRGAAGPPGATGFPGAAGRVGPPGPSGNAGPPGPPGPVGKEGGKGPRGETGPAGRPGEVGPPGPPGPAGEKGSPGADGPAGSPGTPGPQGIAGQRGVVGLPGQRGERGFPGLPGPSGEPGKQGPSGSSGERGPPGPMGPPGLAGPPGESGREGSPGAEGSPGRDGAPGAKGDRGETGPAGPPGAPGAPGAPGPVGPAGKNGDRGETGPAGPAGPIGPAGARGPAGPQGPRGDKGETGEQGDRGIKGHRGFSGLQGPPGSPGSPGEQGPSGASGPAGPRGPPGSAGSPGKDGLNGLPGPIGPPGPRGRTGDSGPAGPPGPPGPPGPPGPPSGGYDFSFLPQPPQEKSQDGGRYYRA
T2 sequence (Q01149 86-1125, chain 2 of 2): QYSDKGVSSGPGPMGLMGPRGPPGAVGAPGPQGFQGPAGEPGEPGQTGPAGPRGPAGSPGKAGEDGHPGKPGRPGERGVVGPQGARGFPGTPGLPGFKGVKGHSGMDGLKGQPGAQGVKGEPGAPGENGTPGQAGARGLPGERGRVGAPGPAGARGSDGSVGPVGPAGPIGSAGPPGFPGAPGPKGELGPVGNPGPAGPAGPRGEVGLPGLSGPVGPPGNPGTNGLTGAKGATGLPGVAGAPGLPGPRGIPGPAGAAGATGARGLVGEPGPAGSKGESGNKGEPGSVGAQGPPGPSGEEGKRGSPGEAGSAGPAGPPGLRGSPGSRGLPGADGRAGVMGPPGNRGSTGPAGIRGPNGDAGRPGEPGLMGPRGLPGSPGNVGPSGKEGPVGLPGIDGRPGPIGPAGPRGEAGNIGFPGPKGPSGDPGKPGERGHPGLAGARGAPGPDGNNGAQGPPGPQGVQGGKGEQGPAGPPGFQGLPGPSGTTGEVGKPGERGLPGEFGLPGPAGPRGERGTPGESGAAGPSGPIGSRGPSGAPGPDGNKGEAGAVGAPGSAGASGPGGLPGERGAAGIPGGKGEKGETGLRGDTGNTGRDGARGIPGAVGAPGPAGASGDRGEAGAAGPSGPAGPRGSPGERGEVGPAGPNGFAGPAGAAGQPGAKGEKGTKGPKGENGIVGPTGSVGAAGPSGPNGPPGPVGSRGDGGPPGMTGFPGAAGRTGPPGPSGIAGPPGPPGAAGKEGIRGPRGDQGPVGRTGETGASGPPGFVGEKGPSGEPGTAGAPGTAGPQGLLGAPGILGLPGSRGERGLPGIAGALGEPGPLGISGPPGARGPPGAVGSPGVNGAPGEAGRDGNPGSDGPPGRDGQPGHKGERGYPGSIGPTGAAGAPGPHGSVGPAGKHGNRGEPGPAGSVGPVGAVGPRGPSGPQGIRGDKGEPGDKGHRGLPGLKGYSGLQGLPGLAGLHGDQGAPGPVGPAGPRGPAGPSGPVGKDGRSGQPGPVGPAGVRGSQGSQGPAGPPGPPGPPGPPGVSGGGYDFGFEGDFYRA
Nature of the experiment: ELISA; solid-phase assay: collagen coated at 10 μg/ml in PBS; serially diluted FMOD or LOX; detected with anti-His tag or anti-LOX antibodies; apparent KD. Particulars: both partners purified.

B1: His tag-modified recombinant fibromodulin (human, amino acids 19–376) (natural protein, UniProt Q06828 19-376, looked up)
chain: QYEDDPHWWFHYLRSQQSTYYDPYDPYPYETYEPYPYGVDEGPAYTYGSPSPPDPRDCPQECDCPPNFPTAMYCDNRNLKYLPFVPSRMKYVYFQNNQITSIQEGVFDNATGLLWIALHGNQITSDKVGRKVFSKLRHLERLYLDHNNLTRMPGPLPRSLRELHLDHNQISRVPNNALEGLENLTALYLQHNEIQEVGSSMRGLRSLILLDLSYNHLRKVPDGLPSALEQLYMEHNNVYTVPDSYFRGAPKLLYVRLSHNSLTNNGLASNTFNSSSLLELDLSYNQLQKIPPVNTNLENLYLQGNRINEFSISSFCTVVDVVNFSKLQVLRLDGNEIKRSAMPADAPLCLRLASLIEI
modifications: tyrosine sulfation (positions not given)
notes: fibromodulin, human, amino acids 19-376; also called FMOD; full-length FMOD; source: 293T cells (pCEP4 vector), purified (Ni-NTA-Sepharose, Superose 6)
As for B1, the Kd was ~150 nM in experiment [1] and ~250 nM in experiment [2].
